Assay [1] addresses T1, hTfR (human transferrin receptor, source and construct not stated) (human, UniProt P02786 89-760, limits assumed). The assay is described as follows: SPR (BioRad ProteOn XPR36), average of the three 13E4_WT runs, mAb captured on Protein A, hTfR as analyte, 25 C. As to the method: (§1) The binding kinetics of nine exemplary humanized anti-TfR antibodies and the parent chimeric antibody were characterized. Studies were run on a BioRad ProteOn XPR36 optical biosensor using a GLM sensor chip coated with Protein A for mAb capture. Running buffer included 10 mM EPES, 150 mM NaCl, pH 7.4 with 0.05 tween-20 with 0.2 mg/ml BSA. Data were collected at 25 degrees C. All mAbs were diluted into running buffer to 2 ug/ml based on the stock concentration provided. Each was then captured for 40 seconds over a Protein A surface.
(§2) hTfR (100 ug) was dissolved into […] of water to yield a 4.3 uM stock concentration. hTfR was dilted to 43 nM as the highest concentration and tested in a 3 fold dilution series. hTfR was injected at 200 ul/min for 2 minutes followed by a one-hour dissociation phase.

For assay [2], the target named is T1, hTfR (human transferrin receptor, …). The experiment in a line: SPR (BioRad ProteOn XPR36), mAb captured on Protein A, hTfR as analyte, 25 C. Put shortly: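 Antibodies at 2 ug/ml were captured on a Protein A GLM chip for 40 s. hTfR was injected as analyte from 43 nM in a 3-fold series, 2 min association and 1 h dissociation. Run at 25 degrees C in HEPES/150 mM NaCl pH 7.4 with tween-20 and 0.2 mg/ml BSA.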

The target is the same in assay [3]. The experiment in a line: SPR (BioRad ProteOn XPR36), average of the three 13E4_WT runs, mAb captured on Protein A, hTfR as analyte, 25 C; Average (n = 3) of the three 13E4_WT runs. As to the method: as §1, §2
Assay [4] shares this target. The experiment in a line: ELISA; ratio of the Kd on transferrin-captured hTfR to the Kd on directly coated hTfR. The method, boiled down:
(§3)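 Human holo-transferrin coated at 500 ng/mL (4 °C overnight) captured hTfR (200 ng/mL, 30 min); comparison plates carried directly coated hTfR. Biotinylated antibodies, 3-fold series from 20 nM (pre-addition), bound 1 h; streptavidin-HRP/TMB, A450 minus A570. Kd from specific binding with Hill slope; shift judged against reference antibody AF2474 with transferrin-overlapping epitope.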

Assay [5] shares this target. The experiment in a line: ELISA, biotinylated antibody on hTfR captured by plate-coated HFE (HFE+TfR); fit: specific binding with Hill slope. (In general: An ELISA detects its analyte on a solid surface through an enzyme-linked reagent.)
Assay [6] has the same target. The experiment in a line: ELISA, biotinylated antibody on hTfR captured by plate-coated human holo-transferrin (Tf+TfR); fit: specific binding with Hill slope. The method, boiled down: as §3
Assay [7] concerns the target T2, TfR2 (transferrin receptor 2) (UniProt Q9UP52 105-801, limits assumed).
T2 sequence (looked up): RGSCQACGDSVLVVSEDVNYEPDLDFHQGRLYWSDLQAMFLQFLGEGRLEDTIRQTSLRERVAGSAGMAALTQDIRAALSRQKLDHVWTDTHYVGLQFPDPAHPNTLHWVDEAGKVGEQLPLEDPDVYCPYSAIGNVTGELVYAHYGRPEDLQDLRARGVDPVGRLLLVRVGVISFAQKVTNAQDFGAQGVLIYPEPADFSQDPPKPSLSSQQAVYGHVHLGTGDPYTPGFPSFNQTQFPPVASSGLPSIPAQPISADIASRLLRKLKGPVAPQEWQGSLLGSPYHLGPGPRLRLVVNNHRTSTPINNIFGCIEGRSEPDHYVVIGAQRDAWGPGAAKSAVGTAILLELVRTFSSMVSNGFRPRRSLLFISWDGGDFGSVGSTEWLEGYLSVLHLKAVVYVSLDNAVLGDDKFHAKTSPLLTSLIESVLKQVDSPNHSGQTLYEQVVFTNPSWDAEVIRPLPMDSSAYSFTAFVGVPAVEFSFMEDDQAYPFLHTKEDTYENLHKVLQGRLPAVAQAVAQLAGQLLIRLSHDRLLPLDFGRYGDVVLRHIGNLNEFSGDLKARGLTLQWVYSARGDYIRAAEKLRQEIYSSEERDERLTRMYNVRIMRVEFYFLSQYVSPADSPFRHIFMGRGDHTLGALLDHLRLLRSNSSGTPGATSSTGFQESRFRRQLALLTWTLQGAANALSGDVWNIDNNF
The experiment in a line: A450 plate assay on TfR2 (method not described in the text).

Assay [8] has as its target T1, hTfR (human transferrin receptor, …). The experiment in a line: SPR (BioRad ProteOn XPR36), mAb captured on Protein A, hTfR as analyte, 25 C; 13E4_WT 2nd run. As for the experimental part: as §1, §2

Where “and” joins values, the source holds several entries; their conditions need not be identical. Equal values may be shown once.

T1 sequence (P02786 89-760 limits assumed): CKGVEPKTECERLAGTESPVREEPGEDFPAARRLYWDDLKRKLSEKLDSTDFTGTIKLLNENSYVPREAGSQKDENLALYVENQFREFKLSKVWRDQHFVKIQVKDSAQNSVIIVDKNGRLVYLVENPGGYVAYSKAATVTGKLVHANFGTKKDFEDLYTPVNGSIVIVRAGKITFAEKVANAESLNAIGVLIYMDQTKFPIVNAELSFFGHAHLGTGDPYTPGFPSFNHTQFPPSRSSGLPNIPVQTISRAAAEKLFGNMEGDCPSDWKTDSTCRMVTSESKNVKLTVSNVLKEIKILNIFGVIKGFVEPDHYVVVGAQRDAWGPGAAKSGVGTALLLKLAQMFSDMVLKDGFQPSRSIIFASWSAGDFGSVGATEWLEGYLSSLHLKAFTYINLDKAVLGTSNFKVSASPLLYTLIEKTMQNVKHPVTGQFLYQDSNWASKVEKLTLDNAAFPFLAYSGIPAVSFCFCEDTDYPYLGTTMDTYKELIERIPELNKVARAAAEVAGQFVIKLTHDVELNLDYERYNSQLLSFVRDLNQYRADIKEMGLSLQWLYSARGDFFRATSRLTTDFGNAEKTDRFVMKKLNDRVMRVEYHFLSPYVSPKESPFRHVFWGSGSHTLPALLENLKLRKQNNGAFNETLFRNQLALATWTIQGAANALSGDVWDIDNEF

B1: 13E4_WT (parent chimeric anti-TfR antibody) (antibody, V domains shown)
VH: QVQLQQPGAELVKPGASVKLSCKASGYTFTNYWMHWVKQRPGQGLEWIGEINPINGRSNYGERFKTKATLTVDKSSSTAYMQLSSLTSEDSAVYYCARGTRAMHYWGQGTSVTVSS
VL: DIQMTQSPASLSVSVGETVTITCRTSENIYNNLAWYQQKQGKSPQLLVYAATNLADGVPSRFSGSGSGTQYSLKINSLQSEDFGNYYCQHFWGTPLTFGAGTKLELK
notes: also called 13E4_WT 1st; 13E4_WT 2nd
Usually Kd stands for the constant that tells how readily two partners part at equilibrium. The term koff denotes the first-order rate constant of dissociation. Higher therefore signals fast dissociation. As usually defined, the kon is a measure of how fast the partners come together. A higher kon goes with faster complex formation. For the molecule B1, the Kd in assay [1] was 0.0011 nM; in assay [5] it was 0.286 nM; in assay [6], 0.0518 nM. For the same molecule, the koff in assay [1] came to 1e-06 s⁻¹; in assay [8], 1.5e-06 s⁻¹. Further, the kon in assay [2] was 1.06e+06 M⁻¹ s⁻¹ and 903000 M⁻¹ s⁻¹ and 840000 M⁻¹ s⁻¹; in assay [3] it was 900000 M⁻¹ s⁻¹. For the same molecule, the “Kd(Tf+TfR)/Kd(TfR)” value in assay [4] is 3.1. The results for the Bmax in assay [5] and in assay [6] were 2.88 A450 and 3.45 A450, respectively. For the same molecule, the h came out at 1.54 in assay [5] and 1.57 in assay [6]. The binding result in assay [7] was “no binding (tested: 1000 nM)”.
